B1: SKA0046 (antibody, V domains shown)
VH: QEQLVESGGGLVQPEGSLTLTCTASGFSLSSSNYMWWVRQAPGKGLEWIACIHASSSGDTYYANWAKGRFTISKTSSTTVTLQMTSLTAADTATYFCARGGYIYGDGGYNGVAGFSLWGPGTLVTVSS
VL: DVVMTQTPASVSEPVGGTVTIKCQASETIGNALAWYQQKPGQRPKLLIYGASNLESGVPSRFKGSGSGTEFTLTISDVQCDDAATYYCQSIYYSSSADTFFFPFGGGTEVVVKG
B2: SKA0027 (antibody, V domains shown)
VH: QEQLVESGGGLVQPEGSLTLTCTASGFSFSSSDYMCWVRQAPGKGLEWIGCIYTGSGSTYYASWAKGRFTISKTSSTTVTLQMTSLTAADTATFFCARRGDSYSNYSFKLWGPGTLVTVSS
VL: AFELTQTPASVEAAVGGTVTIKCQASQNIYSNLAWYQQKPGQPPKLLIYTASSLASGVSSRFKGSGSGTEFTLTISDLECDDAATYYCQCTYINNGYGNTFGGGTEVVVKG
B3: SKA0001 (antibody, V domains shown)
VH: QSVEESGGRLVTPGTPLTLTCTVSGFSLSYYAMNWVRQAPGKGLEWIGIIGISGGTYYASWAKGRFTISKSSSTTVDLKMTSPTTEDTATYFCARGGSAWGDLWGQGTLVTVSS
VL: DIVMTQTPSSVSAAVGGTVTINCQASQSISRLLAWYQQKPGQPPKVLMHDASDLASGVPSRFKGSGSGTEYTLTISDLECADAATYYCQSYYWGSSGDIGYPFGGGTEVVVKG
B4: SKA0009 (antibody, V domains shown)
VH: QSVEESGGRLVTPGTSLTLTCTVSGIDLSSYGMGWVRQAPGMGLEYIGIIYAAGRTYYASWVKGRFIISKTSTTVDLEMTSLTTEDTATYFCARHGSWYAGMDLWGPGTLVTVSS
VL: AIEMTQTPSPVSAAVGGTVSINCQASEDIENYFAWYQQKPGQPPKLLIYDASELASGVPSRFSGSGSGTDFTLTISGVQCDDAATYYCQHADYAASSENTFGGGTEVVVKG
B5: SKA0054 (antibody, V domains shown)
VH: QSLEESGGGLVQPEGSLTLTCTASGFSFSSSFWICWVRQAPGKGLEWLACIDAGSSDNTYYANWAKGRFTISKTSSTTVTLQMTSLTDADTATYFCARDRDAAGDAGYGYATSFNLWGPGTLVTVSS
VL: AIDMTQTPSSVSAAVGGTVTINCQASESIYSNLAWYQQKPGQRPKLLIYLASTLASGVPSRFKGSGSGTEFTLTISDLECADAATYYCQSVYYDSRGDTFFWAFGGGTEVVVKG
B6: SKA0028 (antibody, V domains shown)
VH: QSVEESGGRLVTPGTPLTLTCTASGFTISSYHMSWVRQAPGKGLEWIGIIHGSGNMWYASWAKGRFTISRTSTTVDLEITSPTTEDTATYFCARIRFWASSNYYYFYLWGQGTLVTVSS
VL: ALVMTQTPASVSEPVGGTVTINCQASQNIYSNLAWYQQKPGQRPRLLIYGASNLESGVPSRFRGSGSGTEFTLTISDLECADAATYYCQSAYWGNNNDGAFGGGTEVVVKG
B7: SKA0171 (antibody, V domains shown)
VH: QSLEESGGGLVQPEGSLTLSCTASGFSFSSSYYMCWVRQAPGKGLEWIACIYGGNSVITYYANWAKGRFTISETSSTTVTLQMTSLTAADTATYFCAREVHYDYLYTTYGYANLWGPGTLVTVSS
VL: AIKMTQTPASVSAVVGGTVTINCQASETIYSGLAWYQQKPGQPPKLLIYDTANLETGVSSRFKGSGSGTEYTLTISDLECDDAATYFCLYAYYSGGSADNAFGGGTEVVVKG
B8: SKA0016 (antibody, V domains shown)
VH: QEQLVESGGGLVQPEGSLTLTCTASGFSFSSSDYMCWVRQAPGKGLEWIACIYIGSNGDTFYASWAKGRFTISKTSSTTVTLQMTSLTAADTATYFCARDSRRADDYGTRLDLWGQGTLVTVSS
VL: DIVMTQTPSSVSAAVGGTVTIKCQASQNIYRNLAWYQQKPGQPPKLLIYQASKLESGVPSRFKGSGSGTEFTLTISDLDCDDAASYYCQSISYISSGDTFFWAFGGGTEVVVKG
B9: SKA0052 (antibody, V domains shown)
VH: QSLEESGGDLVKSGASLTLTCTASGFSFSSSYYMCWVRQAPGKGLEWIACIYTGSNGDTYYASWANGRFTISKASSTTVTLQMTSLTAADTATYFCARYTYDDDGDYTSFNLWGPGTLVTVSS
VL: ALVMTQTPSSVSADVGGTVTINCQASQNIYRNLAWYQQKPGQRPKLLIYGASNLEPGVPSRFKGSGSGTEFTLTISDLECDDAATYYCQSVGYSGSVDTFFYAFGGGTEVVVKG
B10: SKA0117 (antibody, V domains shown)
VH: QSLEESGGDLVKPEGSLTLTCTASGFSFSSSHYMCWVRQAPGKGLEWIACIYAGSSDNTYYASWAKGRFTISKTSSTTVTLQMTSLTAADTATYFCARDTYGYVGYASAGGFFNLWGPGTLVTVSS
VL: ALVMTQTPASVSAAVGGTVTINCQASHNIYSVLAWYQQKPGQRPRLLIYGASNLESGVPSRFKGSGSGTEYTLTISDLECDDAATYYCQSAYYSSSTGDNAFGGGTEVVVKG
B11: SKA0141 (antibody, V domains shown)
VH: QSLEESGGDLVKPGASLTLTCTASGFSFSSSYYMCWVRQAPGKGLEWIACIYAGSSGSTYYASWAKGRFTISKTSSTTVTLQMTSLTAADTATYFCARDGDENMLVGGYFNLWGPGTLVTVSS
VL: ALVMTQTPSSVSAAVGGTVTINCQASHNIYSNLAWYQQKPGQRPKLLIYGASNLESGVPSRFKGSGSGTEYTLTISDLECDDAATYYCQSAYYSSNAGYNAFGGGTEVVVKG
B12: SKA0127 (antibody, V domains shown)
VH: QSVEESGGRLVTPGTPLTLTCTVSGIDLSTYAMTWVRQAPGKGLEYIGYINGGGSAYYASWVNGRFTISKTSTTADLKITSPTTEDTATYFCARGPVGSYHRIWGPGTLVTVSS
VL: ALVMTQTPSSVSEPVGGTVTINCRASEDIESYLAWYQQKPGQPPKLLIYATSNLETGVPSRFKGSGSGTDYTLTISGVQCADAATYYCQGYYELSSIDNNAFGGGTEVVVKG

Assays:
Anti-hC5 Antibody [1] = assay: sandwich ELISA: SKA antibody coated, Anti-hC5 Antibody in pooled human serum, then human C5, mouse anti-hC5, anti-mouse-POD; incubation 21 min; blank OD 0.032
Anti-hC5 Antibody [2] = assay: sandwich ELISA: SKA antibody coated, Anti-hC5 Antibody in pooled human serum; OD spiked / OD blank
Anti-hC5 Antibody [3] = assay: SPR (Biacore T200), 25 C, pH 7.4; SKA antibody captured by anti-rabbit IgG, Anti-hC5 Antibody injected 0-800 nM
Anti-hC5 Antibody [4] = assay: SPR (Biacore T200), 25 C, pH 7.4; SKA antibody captured by anti-rabbit IgG, Anti-hC5 Antibody injected 0-800 nM; *reliability might be low
Anti-hC5 Antibody [5] = assay: sandwich ELISA: SKA antibody coated, Anti-hC5 Antibody in pooled human serum, then human C5, mouse anti-hC5, anti-mouse-POD; incubation 9 min; blank OD 0.027
Anti-hC5 Antibody [6] = assay: sandwich ELISA: SKA antibody coated, Anti-hC5 Antibody in pooled human serum, then human C5, mouse anti-hC5, anti-mouse-POD; incubation 18 min; blank OD 0.032
Anti-hC5 Antibody [7] = assay: sandwich ELISA: SKA antibody coated, Anti-hC5 Antibody in pooled human serum, then human C5, mouse anti-hC5, anti-mouse-POD; incubation 9 min; blank OD 0.028
Anti-hC5 Antibody [8] = assay: sandwich ELISA: SKA antibody coated, Anti-hC5 Antibody in pooled human serum, then human C5, mouse anti-hC5, anti-mouse-POD; incubation 19 min; blank OD 0.030
Anti-hC5 Antibody [9] = assay: sandwich ELISA: SKA antibody coated, Anti-hC5 Antibody in pooled human serum, then human C5, mouse anti-hC5, anti-mouse-POD; incubation 16 min; blank OD 0.030
Anti-hC5 Antibody [10] = assay: sandwich ELISA: SKA antibody coated, Anti-hC5 Antibody in pooled human serum, then human C5, mouse anti-hC5, anti-mouse-POD; incubation 8 min; blank OD 0.027
Anti-hC5 Antibody [11] = assay: sandwich ELISA: SKA antibody coated, Anti-hC5 Antibody in pooled human serum, then human C5, mouse anti-hC5, anti-mouse-POD; incubation 11 min; blank OD 0.027
Anti-hC5 Antibody [12] = assay: sandwich ELISA: SKA antibody coated, Anti-hC5 Antibody in pooled human serum, then human C5, mouse anti-hC5, anti-mouse-POD; incubation 8 min; blank OD 0.026
Anti-hC5 Antibody [13] = assay: sandwich ELISA: SKA antibody coated, Anti-hC5 Antibody in pooled human serum, then human C5, mouse anti-hC5, anti-mouse-POD; incubation 14 min; blank OD 0.028

Anti-hC5 Antibody, sequence (constant, as listed by the source limits assumed): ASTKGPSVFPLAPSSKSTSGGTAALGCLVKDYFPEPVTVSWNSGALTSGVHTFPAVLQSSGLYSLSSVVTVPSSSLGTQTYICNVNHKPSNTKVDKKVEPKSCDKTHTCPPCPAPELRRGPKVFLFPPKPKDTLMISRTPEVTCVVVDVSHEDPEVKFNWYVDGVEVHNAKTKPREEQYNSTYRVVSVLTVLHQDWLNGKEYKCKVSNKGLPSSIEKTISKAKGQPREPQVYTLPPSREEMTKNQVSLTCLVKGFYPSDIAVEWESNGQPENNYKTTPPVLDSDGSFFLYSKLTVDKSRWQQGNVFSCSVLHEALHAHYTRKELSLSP

| Binder | Signal to noise ratio (Anti-hC5 Antibody [2]) | koff (Anti-hC5 Antibody [3]) [s⁻¹] | kon (Anti-hC5 Antibody [3]) [M⁻¹ s⁻¹] | also measured |
| --- | --- | --- | --- | --- |
| B1 | 2.3 | 5.17e-05 | 88500 | OD (Anti-hC5 Antibody spiked) (Anti-hC5 Antibody [1]): 0.075 OD; Kd (Anti-hC5 Antibody [4]): 0.585 nM |
| B2 | 3.4 | – | – | OD (Anti-hC5 Antibody spiked) (Anti-hC5 Antibody [5]): 0.093 OD |
| B3 | 2.5 | – | – | OD (Anti-hC5 Antibody spiked) (Anti-hC5 Antibody [6]): 0.079 OD |
| B4 | 3.2 | – | 76900 | OD (Anti-hC5 Antibody spiked) (Anti-hC5 Antibody [7]): 0.089 OD; Kd (Anti-hC5 Antibody [4]): 0.0184 nM; koff (Anti-hC5 Antibody [4]): 1.41e-06 s⁻¹ |
| B5 | 2.6 | 0.000197 | 27300 | OD (Anti-hC5 Antibody spiked) (Anti-hC5 Antibody [8]): 0.077 OD; Kd (Anti-hC5 Antibody [3]): 7.22 nM |
| B6 | 3 | – | – | OD (Anti-hC5 Antibody spiked) (Anti-hC5 Antibody [9]): 0.091 OD |
| B7 | 4 | – | – | OD (Anti-hC5 Antibody spiked) (Anti-hC5 Antibody [10]): 0.106 OD |
| B8 | 2.5 | – | 30900 | OD (Anti-hC5 Antibody spiked) (Anti-hC5 Antibody [9]): 0.076 OD; Kd (Anti-hC5 Antibody [4]): 0.0191 nM; koff (Anti-hC5 Antibody [4]): 5.9e-07 s⁻¹ |
| B9 | 3.7 | 0.000196 | 108000 | OD (Anti-hC5 Antibody spiked) (Anti-hC5 Antibody [11]): 0.098 OD; Kd (Anti-hC5 Antibody [3]): 1.81 nM |
| B10 | 4.1 | – | – | OD (Anti-hC5 Antibody spiked) (Anti-hC5 Antibody [5]): 0.112 OD |
| B11 | 4.2 | – | – | OD (Anti-hC5 Antibody spiked) (Anti-hC5 Antibody [12]): 0.109 OD |
| B12 | 2.8 | 0.000254 | 71800 | OD (Anti-hC5 Antibody spiked) (Anti-hC5 Antibody [13]): 0.078 OD; Kd (Anti-hC5 Antibody [3]): 3.54 nM |
